Experiment [1] deals with murine α-cardiac myosin (filaments) (mouse) (UniProt Q02566). In words: co-sedimentation.
Experiment [2] has as its target F-actin from rabbit skeletal muscle (rabbit) (UniProt P68135). In words: co-sedimentation.

In turn, “mouse short form C0-C2, N-terminal tagged (mSF2), lacking the 8 amino acid NTE (domain or fragment)” showed a cosedimentation relative to human C0-C2 in experiment [1] of 162%.
One may read the Kd as the free concentration of one partner at which half of the binding sites on the other are occupied at equilibrium, for simple one-to-one binding. In experiment [2], “wild-type mouse cMyBP-C C0-C2 (with the N-terminal extension, NTE) (domain or fragment)” registered a Kd of 7.9 µM and a stoichiometry N (mol C0-C2/mol actin) of 1. Also, the cosedimentation relative to human C0-C2 in experiment [1] was 60%.

Values taken from article PMC6366860.
